Measurements as given in US6846803B1, “Antagonists specific for the corticotropin-releasing factor receptor type 2 (CRFR2)” (priority 1998, dated 2005).
Read-outs that look alike come from different tables or passages of the source. Marks after values point to notes of the source that are not given here. Positions of bridges follow the written chain, without caps; N, C: chain ends. Non-standard residues stand in square brackets, D forms with d. No end group written: not given here. *: point of attachment. ATB = 4-(1-azi-2,2,2-trifluoroethyl)benzoyl, O=C(c1ccc(C2(C(F)(F)F)N=N2)cc1)*

T1: rCRFR1 (Rattus norvegicus, UniProt P35353)
T1 construct: expressed in transfected cells; host or cells: HEK 293 cells, stably transfected (HEK-rCRFR1)
T1 sequence (P35353 24-415): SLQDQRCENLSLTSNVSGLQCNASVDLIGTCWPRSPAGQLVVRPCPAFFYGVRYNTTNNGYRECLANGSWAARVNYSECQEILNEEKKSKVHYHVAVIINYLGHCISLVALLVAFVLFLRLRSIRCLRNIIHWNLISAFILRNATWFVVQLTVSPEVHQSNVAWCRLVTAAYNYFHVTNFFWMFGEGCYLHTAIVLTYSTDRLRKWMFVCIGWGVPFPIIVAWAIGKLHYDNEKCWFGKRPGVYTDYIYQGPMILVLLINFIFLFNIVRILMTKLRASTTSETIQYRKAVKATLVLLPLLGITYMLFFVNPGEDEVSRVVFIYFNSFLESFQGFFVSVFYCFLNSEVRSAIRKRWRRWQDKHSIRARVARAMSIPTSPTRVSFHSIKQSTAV

T2: rat CRF receptor, type 1 (rCRFR1) (rat, UniProt P35353 24-415)
T2 sequence (looked up): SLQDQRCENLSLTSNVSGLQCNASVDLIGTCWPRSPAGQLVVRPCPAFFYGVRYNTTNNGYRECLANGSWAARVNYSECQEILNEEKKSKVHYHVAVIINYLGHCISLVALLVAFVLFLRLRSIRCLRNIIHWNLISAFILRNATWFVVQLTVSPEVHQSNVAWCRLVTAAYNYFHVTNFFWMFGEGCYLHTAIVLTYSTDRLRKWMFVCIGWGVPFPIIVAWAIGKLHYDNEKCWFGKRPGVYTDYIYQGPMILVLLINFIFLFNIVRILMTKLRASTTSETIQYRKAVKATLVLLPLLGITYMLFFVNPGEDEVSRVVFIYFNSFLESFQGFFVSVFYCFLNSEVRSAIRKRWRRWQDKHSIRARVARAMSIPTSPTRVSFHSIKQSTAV


Experiments:
[1] = molecular target: mouse CRF receptor, type 2β (mCRFR2β) (mouse) (UniProt Q60748); assay: displacement of [125I-Tyr0]Svg from HEK-mCRFR2β membranes
[2] = molecular target: mouse CRF receptor, type 2β (mCRFR2β) (mouse) (UniProt Q60748); assay: Kd(rCRFR1)/Kd(mCRFR2β) of the peptide normalised to that of astressin; radioligand displacement
mCRFR2β [3] = molecular target: T3, mCRFR2β (Mus musculus, UniProt Q60748); assay: Displacement of [^125I-Tyr^0]Svg from membranes of HEK-mCRFR2β cells; format: binding; conditions: Table 1; Kd(rCRFR1)(peptide)/Kd(rCRFR1)(astressin) × Kd(mCRFR2β)(astressin)/Kd(mCRFR2β)(peptide)
T3 construct: expressed in transfected cells; host or cells: HEK 293 cells, stably transfected (HEK-mCRFR2β); membrane homogenates
T3 sequence (Q60748 1-431 isoform Q60748-2): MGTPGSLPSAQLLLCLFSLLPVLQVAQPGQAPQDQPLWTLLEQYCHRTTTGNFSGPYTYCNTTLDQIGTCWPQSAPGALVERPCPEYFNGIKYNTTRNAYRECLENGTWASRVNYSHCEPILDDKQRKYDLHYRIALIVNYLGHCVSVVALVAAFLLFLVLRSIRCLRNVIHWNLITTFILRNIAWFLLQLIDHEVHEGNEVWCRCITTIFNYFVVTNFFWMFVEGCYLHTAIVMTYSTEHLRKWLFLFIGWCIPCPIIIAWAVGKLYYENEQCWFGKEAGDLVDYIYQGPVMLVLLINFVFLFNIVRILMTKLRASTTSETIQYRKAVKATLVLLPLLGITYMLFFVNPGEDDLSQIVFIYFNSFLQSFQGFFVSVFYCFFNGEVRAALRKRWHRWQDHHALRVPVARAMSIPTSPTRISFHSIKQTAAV
Description: (§1) Binding assays were performed in 96-well MultiScreen plates (Millipore, Eschborn, Germany) with GF/B filters (pore size 1.0 μm). […] After incubation (60 min, 23° C.), membrane suspension was aspirated through the plate, followed by two washes with assay buffer (0.2 ml, 23°). Radioactivity of the punched filters was measured with a 1470 WIZARD automatic gamma counter (Berthold, Hannover). […] Statistical analysis was performed with ANOVA, and significant differences between groups were determined by post hoc comparison using the Dunn test.
Membrane homogenates of human embryonic kidney (HEK) 293 cells stably transfected with cDNA coding for rat CRF receptor, type 1 (rCRFR1) or mouse CRF receptor, type 2β (mCRFR2β) were prepared according to standard protocols (see, e.g., Sambrook et al., Molecular Cloning: A Laboratory Manual, 2nd. Edition, Cold Spring Habor Laboratory Press, Cold Spring Habor, N.Y., 1989; Ausubel et al., Current Protocols in Molecular Biology, Green Publishing Associates and Wiley Interscience, NY, 1989).

rCRFR1 = molecular target: T1, rCRFR1; assay: cAMP stimulation / inhibition of oCRF-stimulated cAMP production in HEK-rCRFR1 cells; format: cell-based; conditions: Table 2; 1 μM antagonist, cAMP production stimulated by 1 nM oCRF; oCRF alone = 1.00 (lower = stronger inhibition)
Description: (§2) HEK-rCRFR1 cells or HEK-mCRFR2β cells were incubated with different CRF agonists in the presence or absence of 1 μM or 10 nM antagonist, or CRF antagonist (c=1 μM) alone. After removal of the medium, cells were lyzed with aqueous 6% trichloroacetic acid (5 min, 100° C.) (Rühmann, A., A. K. E. Köpke, F. M. Dautzenberg, and J. Spiess, Proc. Natl. Acad. Sci. USA 93: 10609-10613, 1996). The cell lysates were stored at −70° C. until assayed with a RIA kit (Amersham, Little Chalfont). […] Statistical significance was determined across groups with ANOVA, and significant differences between groups were determined by post hoc comparison using the Dunn test.
(§3) Intrinsic activities were measured at peptide concentrations generating maximal formation of cAMP in HEK-rCRFR1 or HEK-mCRFR2β cells.

mCRFR2β [4] = molecular target: T3, mCRFR2β; assay: cAMP stimulation / inhibition of Svg-stimulated cAMP production in HEK-mCRFR2β cells; format: cell-based; conditions: Table 2; 10 nM antagonist, cAMP production stimulated by 1 nM Svg; Svg alone = 1.00 (lower = stronger inhibition)
Description: as §2, §3

[5] = molecular target: T2, rat CRF receptor, type 1 (rCRFR1); assay: cell-based or functional assay
[6] = molecular target: T2, rat CRF receptor, type 1 (rCRFR1); assay: cell-based or functional assay; remark: listed apart in the source
[7] = molecular target: T2, rat CRF receptor, type 1 (rCRFR1); assay: displacement of [125I-Tyr0]oCRF from HEK-rCRFR1 membranes
Description: as §1

[8] = molecular target: T2, rat CRF receptor, type 1 (rCRFR1); assay: as above; remark: listed apart in the source
Description: as §1

sauvagine (Svg) (peptide), sequence (peptide): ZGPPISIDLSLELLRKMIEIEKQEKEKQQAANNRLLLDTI

Molecule	Kd [1]	Selectivity [2]	% IA (intrinsic activity), cAMP production, HEK-rCRFR1 cells [5]	rel. IA (relative intrinsic activity), cAMP production, HEK-rCRFR1 cells [6]	rel. pot. (relative potency), inhibition of oCRF-stimulated cAMP production, HEK-rCRFR1 cells [6]	Kd [8]	also measured
astressin, cyclo(30-33)[DPhe^12, Nle^21,38, Glu^30, Lys^33]h/rCRF(12-41) (peptide)	4 nM	1	–	–	–	–	–
sauvagine (Svg) (peptide)	4.5 nM	0.109	–	–	–	–	–
[DPhe^12, Nle^21,38]h/rCRF(12-41) [compound 5, reference compound]	–	–	–	–	–	–	Selectivity (mCRFR2β [3]): 1.84; rCRFR1 relative in vitro potency (rCRFR1): 0.33 ± 0.08^h,i; mCRFR2β relative in vitro potency (mCRFR2β [4]): 0.87 ± 0.08^i
[dF]ELLRKMIEIEKQEKEKQQAANNRLLLDTI (not fully specified (C-terminus), also called compound 12) [[DPhe^11]Svg(11-40)]	3.5 nM	47.6	0.07 relative, oCRF = 1.00	0.07 relative, oCRF = 1.00	0.75 relative, oCRF = 1.00	237 nM	relative in vitro potency, inhibition of oCRF-stimulated cAMP production, HEK-rCRFR1 cells [5]: 0.75 relative, oCRF = 1.00; Kd [7]: 237 nM
LELLRKMIEIEKQEKEKQQAANNRLLLDTI (not fully specified (C-terminus), also called compound 14) [Svg(11-40)]	15.4 nM	37.9	0.14 relative, oCRF = 1.00	0.14 relative, oCRF = 1.00	0.76 relative, oCRF = 1.00	831 nM	relative in vitro potency, inhibition of oCRF-stimulated cAMP production, HEK-rCRFR1 cells [5]: 0.76 relative, oCRF = 1.00; Kd [7]: 831 nM
[dL]ELLRKMIEIEKQEKEKQQAANNRLLLDTI (not fully specified (C-terminus), also called compound 13) [[DLeu^11]Svg(11-40)]	20.9 nM	56.1	0.22 relative, oCRF = 1.00	0.22 relative, oCRF = 1.00	0.92 relative, oCRF = 1.00	1670 nM	relative in vitro potency, inhibition of oCRF-stimulated cAMP production, HEK-rCRFR1 cells [5]: 0.92 relative, oCRF = 1.00; Kd [7]: 1670 nM
[dF]HLLRKMIEIEKQEKEKQQAANNRLLLDTI (not fully specified (C-terminus)) [antisauvagine-30, [DPhe^11, His^12]Svg(11-40)]	–	77	0.04 relative, oCRF = 1.00	–	–	–	–
{ATB}-HLLRKMIEIEKQEKEKQQAANNRLLLDTI (ends and bridges not checked, also called compound 17) [ATB-[His^12]Svg(12-40)]	–	32.3	–	0.15 relative, oCRF = 1.00	0.54 relative, oCRF = 1.00	142 nM	–
YLLRKMIEIEKQEKEKQQAANNRLLLDTI (ends and bridges not checked, also called compound 20) [[Tyr^12]Svg(12-40)]	–	1.63	–	0.06 relative, oCRF = 1.00	0.9 relative, oCRF = 1.00	996 nM	–
[dF]HLLREVLEMTKADQLAQQAHSNRKLLDIA (ends and bridges not checked) [[DPhe^12]oCRF(12-41)]	–	–	0.05 relative, oCRF = 1.00	–	–	–	–
[dF]HLLRTILELARTQSQRERAEQNRIIFDSV (ends and bridges not checked) [[DPhe^11]rUcn(11-40)]	–	–	0.07 relative, oCRF = 1.00	–	–	–	–
[dL]ELLRTILELARTQSQRERAEQNRIIFDSV (ends and bridges not checked) [[DLeu^11, Glu^12]rUcn(11-40)]	–	–	0.23 relative, oCRF = 1.00	–	–	–	–
[dF]ELLRTILELARTQSQRERAEQNRIIFDSV (ends and bridges not checked) [[DPhe^11, Glu^12]rUcn(11-40)]	–	–	0.22 relative, oCRF = 1.00	–	–	–	–
[dF]HLLRTILELARTQSQREEAEKNRIIFDSV (lactam 19-22; ends not checked) [cyclo(29-32)[DPhe^11, Glu^29, Lys^32]rUcn(11-40)]	–	–	0.1 relative, oCRF = 1.00	–	–	–	–
